Measured values reported in patent US20080242590A1, “New Method 706” (ASTRAZENECA AB, priority 2007, published 2008).

Key:
Experiment in all cases: cell-based or functional assay
[1] = molecular target: amyloid β peptide 1-40 in guinea pig plasma (guinea pig) (UniProt Q60495)
[2] = molecular target: amyloid β peptide 1-42 in guinea pig plasma (guinea pig) (UniProt Q60495)
[3] = molecular target: amyloid β peptide 1-42 (human) (human)
[4] = molecular target: amyloid β peptide 1-40 (human) (human)
Sequence of amyloid β peptide 1-40 (human) (human) (peptide, as listed by the source): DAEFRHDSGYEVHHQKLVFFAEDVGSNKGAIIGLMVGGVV

Sequence of amyloid β peptide 1-42 (human) (human) (peptide, as listed by the source): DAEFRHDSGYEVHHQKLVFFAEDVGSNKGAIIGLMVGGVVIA
Sequence of Recombinant Human Neprilysin (R&D Systems) (P08473 52-750 limits assumed): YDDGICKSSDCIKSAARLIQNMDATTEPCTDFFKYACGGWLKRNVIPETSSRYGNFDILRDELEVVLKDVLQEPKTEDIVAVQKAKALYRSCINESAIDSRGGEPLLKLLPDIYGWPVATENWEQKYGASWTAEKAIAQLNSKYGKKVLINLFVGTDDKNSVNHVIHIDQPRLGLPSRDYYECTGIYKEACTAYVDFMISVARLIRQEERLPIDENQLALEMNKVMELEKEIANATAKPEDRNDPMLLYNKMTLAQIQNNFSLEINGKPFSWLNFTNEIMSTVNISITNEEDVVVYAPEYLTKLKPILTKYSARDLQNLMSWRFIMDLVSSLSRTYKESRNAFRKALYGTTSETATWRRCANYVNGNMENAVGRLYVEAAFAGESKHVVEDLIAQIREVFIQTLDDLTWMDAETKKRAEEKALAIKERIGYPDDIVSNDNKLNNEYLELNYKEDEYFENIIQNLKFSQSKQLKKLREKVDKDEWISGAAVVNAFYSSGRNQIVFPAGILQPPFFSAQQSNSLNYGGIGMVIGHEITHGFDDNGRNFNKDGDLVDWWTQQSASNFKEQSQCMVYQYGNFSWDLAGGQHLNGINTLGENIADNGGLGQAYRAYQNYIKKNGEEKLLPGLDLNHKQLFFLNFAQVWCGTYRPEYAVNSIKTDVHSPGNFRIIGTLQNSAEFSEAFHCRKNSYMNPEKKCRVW

Row | degradation of Aβ40 in guinea pig plasma ex vivo compared to vehicle (ELISA), 5 µg/ml, 4 h at 37 °C [1] [%] | reduction of Aβ42 in guinea pig plasma ex vivo compared to vehicle (ELISA), 5 µg/ml, 4 h at 37 °C [2] [%] | % degradation of Aβ 1-42 in APPswe-tg mouse plasma at highest concentration (100 µg/ml), 1 h room temperature, ELISA [3] [%] | % degradation of Aβ 1-42 in human plasma at highest concentration (100 µg/ml), 1 h room temperature, ELISA [3] [%] | EC50 of degradation of Aβ 1-42 in APPswe-tg mouse plasma [3] [µM] | EC50 of degradation of Aβ 1-42 in human plasma [3] [µM] | % degradation of amyloid β 1-40 in APPswe-tg mouse plasma at highest concentration (100 µg/ml), 1 h room temperature, ELISA [4] [%] | % degradation of amyloid β 1-40 in human plasma at highest concentration (100 µg/ml), 1 h room temperature, ELISA [4] [%] | EC50 of degradation of Aβ 1-40 in APPswe-tg mouse plasma [4] [µM] | EC50 of degradation of Aβ 1-40 in human plasma [4] [µM] | Substance
1 | 49 | > 57 |  |  |  |  |  |  |  |  | Recombinant Human Neprilysin (R&D Systems) (from UniProt P08473 52-750) (enzyme)
2 |  |  | 53 | 19 | 0.82 | 0.18 | 77 | 71 | 0.34 | 0.4 | mouse version of the Fc-Nep (mFc-Nep) (Fc fusion)
